The test addresses BRAF kinase domain (his6-BRAF^445-723-intein, intein cleaved) (human) (UniProt P15056). As to the kind of experiment: mass photometry.

As for “BRAF kinase domain (his6-BRAF^445-723-intein, intein cleaved) (from UniProt P15056 445-723) (domain or fragment)”, the stoichiometry N came out at 2.

Source of the values: doi:10.64898/2025.12.15.694443.
